Experimental data taken from patent publication US11254722B2, “Recombinant proteins and uses thereof” (ACADEMIA SINICA, priority 2017, dated 2022).
Where two headings read alike, the source gives them in different places.

What was measured:
[1] = system: PC-9 non-small cell lung cancer cells; test: PC-9 subcutaneous tumors in NSG mice, daily erlotinib; assay type: in vivo; settings: erlotinib alone, 25 mg/kg orally daily; day 20
Description: (§1) 5×10exp6 PC-9 non-small cell lung cancer cells were injected subcutaneously in Nod scid gamma (NSG) mice. […] Erlotinib in 6% captisol was dosed orally daily at 25 mg/kg; IGFBP3Fc (3(del3)3) was dosed intraperitoneally at 25 mg/kg three times per week; control animals were administered vehicle. Dosing was started on day 11; erlotinib and erlotinib plus D3 was discontinued on day 19; D3 injections were discontinued on day 22.

hep3B cells = test: hep3B proliferation assay; assay type: cell-based, human; settings: for IC50: Homo sapiens, Hep3B, FIG. 15, read-out: IC50 of erlotinib to EGFR-wildtype hep3B cells
Description: (§2) For the proliferation assay, cells except for HUVEC were seeded at a density of 1,000 to 6,000 in 96 wells in an assay buffer of DMEM/F12 plus 0.2% BSA and 10 ug/ml transferrin. Chemical inhibitors were added after 16-20 hours after plating; IGF-1 or other growth factors or test chimeras in assay buffer were added at the time of plating or 16-20 hours after plating. 5,000 HUVEC ells were plated in poly-L-lysine coated 96 wells in M199 with 1%/FBS and HEPES. After 3 to 4 days of culture, growth was determined by incubating cells with Alamar blue for 4 to 6 hours and then the fluorescence (RFU) at 544/590 nm was read. For long term proliferation assays, cells were plated in the growth media with 5% or 10% FBS at densities of 500 to 10,000 cells per cm^2 growth area and grown for 7 to 21 days. Inhibitors and effectors were added 1-4 days after plating. Cells were exposed to cisplatin or gemcitabine for two days. Medium was renewed twice weekly. At completion, cells were fixed and then stained with Giemsa.
The human hepatoma cell line hep3B could be stimulated by many growth factors including IGF-1, IGF-2, HGF, bFGF, VEGF, and neuregulin.

PC-9 tumors = test: PC-9 subcutaneous tumors in mice, low dose erlotinib; assay type: in vivo; settings: erlotinib 25 mg/kg 3 times per week; FIG. 27
Description: as §1
Subcutaneous PC-9 tumors were generated and measured as above. Chimera D3 was dosed as above; erlotinib was dosed at 25 mg/kg 3 times per week in order to examine the effect of the chimera D3 on the tumor growth with suboptimal erlotinib dosing. The treatment started on day 8 and ended on day 22.

[2] = system: MCF-7 breast cancer cells; test: MCF-7 proliferation assay; assay type: cell-based; settings: FIG. 5
Description: (§3) MCF-7 cells (a breast cancer cell line) were maintained in MEM (GIBCO) plus insulin and NEAA and 10% FBS (Hyclone).
as §2
We next examined the effect of 56662 (BP3/Fc) on the proliferation induced by growth factors that interacted with the IGFBP3. The proliferation of MCF-7 breast cancer cells was induced in serum-free medium by individual growth factors like IGF-1, IGF-2, EGF, TGF-a, Nrgbx, b-FGF, and amphiregulin (FIG. 1).

IGF-1 and VEGF = test: Competition binding ELISA with biotinylated IGF-1 or biotinylated VEGF; settings: competitive inhibition data, FIG. 8 and FIG. 9
Description: (§4) Plates were coated with goat anti-human Fc antibody, blocked and then incubated with chimera as in the Fc ELISA. Biotinylated IGF-1 (GroPep) or VEGF-Biotin (R&D Systems VEGF biotinylated with sulfo-NHS-LC-biotin as per instructions (Pierce) was added for 2 hours followed by streptavidin-HRP (Jackson Immunoresearch) for 30 minutes. Chromogenic development with tetramethyl benzidine was performed as described above.
ELISA plates were coated with 0.5 μg/ml growth factor (IGF-1, IGF-2, VEGF, etc.) in PBS overnight and blocked as described above. After overnight incubation with chimera, chimera binding was detected with anti-human Fc-HRP and development with tetramethyl benzidine as described above.
Binding specificity was also studied by competition binding assays using biotinylated IGF-1 (IGF-1-bio) or biotinylated VEGF (VEGF-bio) in the growth factor ELISA assay.

HUVEC cells = test: HUVEC proliferation assay; assay type: cell-based; settings: for inhibition of VEGF-induced proliferation of HUVEC cells: FIG. 6, FIG. 13
Description: as §3, §2
Growth factor synergism can also be observed in the proliferation of HUVEC cells.

VEGF = target: T1, VEGF (Homo sapiens, UniProt P15692); test: Stability: VEGF binding remaining after overnight incubation; assay type: physicochemical; settings: experiment 3-192
T1 construct: purchased R&D Systems
T1 sequence (P15692 27-191 isoform P15692-4): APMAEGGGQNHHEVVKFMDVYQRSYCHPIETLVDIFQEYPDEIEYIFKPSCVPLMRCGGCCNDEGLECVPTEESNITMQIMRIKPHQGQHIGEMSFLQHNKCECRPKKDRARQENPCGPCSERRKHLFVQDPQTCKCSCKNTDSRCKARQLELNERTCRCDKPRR
Description: as §4
To test the stability of the present chimeras, some purified chimeras (see, Table 4) were incubated with PBS or a conditioned medium from the MCF-7 cell line overnight at 37° C. and PBS overnight at 4° C. The IGF-1 binding and VEGF binding were measured using the biotinylated IGF-1 and VEGF.

[3] = target: T2, nrgEGF (amino acids Thr176-Lys246 of neuregulin-beta 1) (Homo sapiens, UniProt Q02297); test: Biacore binding to nrgEGF
T2 construct: Thr176-Lys246 of neuregulin-beta 1; purchased R&D Sciences or SinoBiologicals
T2 sequence (Q02297 176-246 isoform Q02297-6): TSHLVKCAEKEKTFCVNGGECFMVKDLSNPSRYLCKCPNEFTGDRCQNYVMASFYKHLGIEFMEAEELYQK
Description: (§5) Biacore binding was performed at David Myszka's laboratory at the University of Utah or at the Genomic Research Center at Academia Sinica. Surfaces of binding protein chimera were made via chemical immobilization on a CM4 chip using standard amine coupling chemistry. […] Excess surface carboxyl activated sites on all four flow cells was blocked using the doubly positively charged species ethylenediamine. Binding experiments (but not immobilizations) in HBS-P (10 mM HEPES pH 7.4, 150 mM NaCl, 0.05% P20), The HBS-P was supplemented with BSA at 0.2 mg/mL, or HBS-P was supplemented with 500 mM NaCl (650 mM NaCl, final concentration). Analytes were also reconstituted in the corresponding buffer. All experiments were performed at 25° C. 1/150 dilutions of phosphoric acid were used to regenerate IGFBP3-Fc surfaces and a sequence of 3 M MgCl2 followed by 5 M GuCl was used to regenerate surfaces immobilized with growth factor. Dissociation constants reported below used immobilized binding protein unless noted. Differences between binding constants may be expected between growth factor immobilization and chimera immobilization.
(§6) In this example, erbB4 domain 1 was attached to the N-terminus of the recombinant IGFBP3-Fc or the recombinant IGFBP3-v1v2-Fc.

[4] = target: T3, nrgECD (amino acids Ser2-Lys246 of neuregulin beta 1) (Homo sapiens, UniProt Q02297); test: Biacore binding to nrgECD; settings: immobilized nrgECD
T3 construct: Ser2-Lys246 of neuregulin beta 1; purchased R&D Sciences or SinoBiologicals
T3 sequence (Q02297 2-246 isoform Q02297-6): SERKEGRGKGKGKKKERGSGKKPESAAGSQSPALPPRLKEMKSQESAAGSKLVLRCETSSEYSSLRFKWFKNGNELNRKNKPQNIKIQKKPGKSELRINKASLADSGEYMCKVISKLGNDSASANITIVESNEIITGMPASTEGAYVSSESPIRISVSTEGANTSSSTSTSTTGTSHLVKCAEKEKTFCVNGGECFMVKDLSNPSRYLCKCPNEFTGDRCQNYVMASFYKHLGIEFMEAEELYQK
Description: as §5, §6

C#Cc1cccc(Nc2ncnc3cc(OCCOC)c(OCCOC)cc23)c1 [erlotinib, reference compound]
tumor volume of treated to control (T/C) [1]: 38% | IC50 (hep3B cells; cells not treated with chimera h3t33Fc): ~10000 nM | IC50 (hep3B cells; with the addition of 100 nM chimera h3t33Fc): ~100 nM | tumor regression with intermittent dosing (PC-9 tumors): did not cause the tumor regression

B1: chimera A: IGFBP3 with IGFBP3 linker deletion 1-gly 3 linker-v1v2-Fc, SEQ ID NO: 14 (protein)
chain: MSEVPVARVWLVLLLLTVQVGVTAGGASSAGLGPVVRCEPCDARALAQCAPPPAVCAELVREPGCGCCLTCALSEGQPCGIYTERCGSGLRCQPSPDEARPLQALLDGRGLCVNASAVSKGHAKDSQRYKVDYESQSTDTQNFSSESKRETEYGPCRREMEDTLNHLKFLNVLSPRGVHIPNCDKKGFYKKKQCRPSKGRKRGFCWCVDKYGQPLPGYTTKGKEDVHCYSMQSKAPPAPGNASESEEDRSAGIYIFISDTGRPFVEMYSEIPEIIHMTEGRELVIPCRVTSPNITVTLKKFPLDTLIPDGKRIIWDSRKGFIISNATYKEIGLLTCEATVNGHLYKTNYLTHRQGYRIYDVVLSPSHGIELSVGEKLVLNCTARTELNVGIDFNWEYPSSKHQHKKLVNRDLKTQSGSEMKKFLSTLTIDGVTRSDQGLYTCAASSGLMTKKNSTFVRVHEKVECPPCPAPPVAGPSVFLFPPKPKDQLMISRTPEVTCVVVDVSHEDPEVKFNWYVDGVEVHNAKTKPREEQYNSTYRVVSVLTVLHQDWLNGKEYKCKVSNKGLPSSIEKTISKAKGQPREPQVYTLPPSREEMTKNQVSLTCLVKGFYPSDIAVEWESNGQPENNYKTTPPVLDSDGSFFLYSKLTVDKSRWQQGNVFSCSVMHEGLHNHYTQKSLSLSPGK
inhibition of IGF-1-induced proliferation of MCF-7, compared to 56662 and chimera B [2]: a smaller EC50 and a higher maximal inhibition | simultaneous binding of IGF and VEGF (IGF-1 and VEGF): could bind simultaneously | rescue by HGF, bFGF, or IGF in hep3b cells treated with erlotinib (hep3B cells; FIG. 22A): decreased the rescue | inhibition of VEGF-induced proliferation of HUVEC cells (HUVEC cells): potent inhibition | inhibition of HUVEC proliferation stimulated by IGF-1, bFGF, HGF, VEGF, and combinations (HUVEC cells; FIG. 14): inhibited

B2: Chimera B: IGFBP3 with IGFBP3 linker deletion 1-GS 16 linker-v1v2-Fc, SEQ ID NO: 19 (protein)
chain: MSEVPVARVWLVLLLLTVQVGVTAGGASSAGLGPVVRCEPCDARALAQCAPPPAVCAELVREPGCGCCLTCALSEGQPCGIYTERCGSGLRCQPSPDEARPLQALLDGRGLCVNASAVSKGHAKDSQRYKVDYESQSTDTQNFSSESKRETEYGPCRREMEDTLNHLKFLNVLSPRGVHIPNCDKKGFYKKKQCRPSKGRKRGFCWCVDKYGQPLPGYTTKGKEDVHCYSMQSKGGGGSGGGGSGGGGSGIYIFISDTGRPFVEMYSEIPEIIHMTEGRELVIPCRVTSPNITVTLKKFPLDTLIPDGKRIIWDSRKGFIISNATYKEIGLLTCEATVNGHLYKTNYLTHRQGYRIYDVVLSPSHGIELSVGEKLVLNCTARTELNVGIDFNWEYPSSKHQHKKLVNRDLKTQSGSEMKKFLSTLTIDGVTRSDQGLYTCAASSGLMTKKNSTFVRVHEKVECPPCPAPPVAGPSVFLFPPKPKDQLMISRTPEVTCVVVDVSHEDPEVKFNWYVDGVEVHNAKTKPREEQYNSTYRVVSVLTVLHQDWLNGKEYKCKVSNKGLPSSIEKTISKAKGQPREPQVYTLPPSREEMTKNQVSLTCLVKGFYPSDIAVEWESNGQPENNYKTTPPVLDSDGSFFLYSKLTVDKSRWQQGNVFSCSVMHEGLHNHYTQKSLSLSPGK
VEGF binding remaining over control, mcf7 (VEGF; MCF-7 conditioned medium overnight at 37° C.): 73% | VEGF binding remaining over control, 37 con (VEGF; PBS overnight at 37° C.): 101% | inhibition of VEGF-induced proliferation of HUVEC cells (HUVEC cells): potent inhibition

B3: IGFBP3-erbB4-Fc: ErbB4-GS-IGFBP3-gly 3 linker-Fc, SEQ ID NO: 22 (protein)
chain: MSEVPVARVWLVLLLLTVQVGVTAGVQPSDSQSVCAGTENKLSSLSDLEQQYRALRKYYENCEVVMGNLEITSIEHNRDLSFLRSVREVTGYVLVALNQFRYLPLENLRIIRGTKLYEDRYALAIFLNYRKDGNFGLQELGLKNLTEILNGGVYVDQNKFLCYADTIHWQDIVRNPWPSNLTLVSTNGSSGCGRCHKSCTGRCWGPTENHCQTLTRTVGGGGSGGGGSGGGGSGGGGSGGGGGASSAGLGPVVRCEPCDARALAQCAPPPAVCAELVREPGCGCCLTCALSEGQPCGIYTERCGSGLRCQPSPDEARPLQALLDGRGLCVNASAVSKGHAKDSQRYKVDYESQSTDTQNFSSESKRETEYGPCRREMEDTLNHLKFLNVLSPRGVHIPNCDKKGFYKKKQCRPSKGRKRGFCWCVDKYGQPLPGYTTKGKEDVHCYSMQSKVECPPCPAPPVAGPSVFLFPPKPKDQLMISRTPEVTCVVVDVSHEDPEVKFNWYVDGVEVHNAKTKPREEQYNSTYRVVSVLTVLHQDWLNGKEYKCKVSNKGLPSSIEKTISKAKGQPREPQVYTLPPSREEMTKNQVSLTCLVKGFYPSDIAVEWESNGQPENNYKTTPPVLDSDGSFFLYSKLTVDKSRWQQGNVFSCSVMHEGLHNHYTQKSLSLSPGK
Kd [3]: 6 nM | Kd [4]: 0.004 nM
